Changes are numbered by the printed parent chain. In names and notes the source's numbering stands.
B1: Ab4M antibody (antibody, IgG1, V domains shown)
VH: EVQLVESGGGVVQPGRSLRLSCAASGFTFSRFGMHWVRQAPGKGLEWVAFISNDGSNKYYADSVKGRFTISRDNSKNTLYLQMNSLRPEDTAVYYCARGRAYGSGSLFDPWGQGTLVTVSS
VL: DIQLTQSPSSLSASVGDRVTITCRASRTISIYVNWYRQRPGKAPESLIYAASNLHSGVPSRFSGSGSGTDFTLTISSLQPEDFATYYCQQTHATRQYTFGQGTKLEIK
notes: Ab4 with V50F and H97A in VH and V75I, G84A and D93A in VK; Whole IgG (IgG1 vector pdCMV-dhfrC-Ab4M)
B2: Ab417 antibody (antibody, V domains shown)
VH: B1 VH
VL: B1 VL with T91S, H92I, A93G, T94R, R95G, Q96V, Y97V
notes: Whole IgG expressed from pdCMV-dhfrC-Ab417; also called IgG form of Ab4M-18 (codon-optimised)
B3: D93A mutant of Ab4 antibody (antibody, IgG1, V domains shown)
VH: B1 VH with F50V, A101H
VL: B1 VL with I75V, A84G
notes: Whole IgG made in the pdCMV-dhfrC-Ab4 vector (IgG1); also called VK D93A mutant
B4: G99A (antibody, V domains shown)
VH: B1 VH with F50V, A101H, G103A
VL: B1 VL with I75V, A84G, A93D
notes: whole IgG; also called Ab4 VH G99A (HCDR3 alanine mutant); copies: 2 + 2
B5: H97A mutant of Ab4 antibody (antibody, IgG1, name in Kabat numbering, V domains shown)
VH: B1 VH with F50V
VL: B1 VL with I75V, A84G, A93D
notes: Whole IgG made in the pdCMV-dhfrC-Ab4 vector (IgG1); also called VH H97A mutant of Ab4
B6: R96A (antibody, V domains shown)
VH: B1 VH with F50V, R100A, A101H
VL: B1 VL with I75V, A84G, A93D
notes: whole IgG; also called Ab4 VH R96A (HCDR3 alanine mutant); copies: 2 + 2
B7: V50F/H97A mutant of Ab4 antibody (antibody, name in Kabat numbering, V domains shown)
VH: B1 VH
VL: B1 VL with I75V, A84G, A93D
notes: also called VH V50F/H97A mutant
B8: Y98A (antibody, V domains shown)
VH: B1 VH with F50V, A101H, Y102A
VL: B1 VL with I75V, A84G, A93D
notes: whole IgG; also called Ab4 VH Y98A (HCDR3 alanine mutant); copies: 2 + 2
B9: Ab417-H6L2 antibody (antibody, V domains shown)
VH: B1 VH with R16G, D54E, K76A, P88A
VL: B1 VL with I31S, T91S, H92I, A93G, T94R, R95G, Q96V, Y97V
notes: H6 is the Ab417 VH with R16G, D54E, K76A and P88A; L2 is the Ab417 VK with I31S; also called Ab417-H6L2 mutant; H6L2 mutant
B10: Ab417-H6L6 antibody (antibody, V domains shown)
VH: B1 VH with R16G, D54E, K76A, P88A
VL: DIQLTQSPSSLSASVGDRVTITCRASRTISSYVNWYQQKPGQAPESLIYAASNLHSGVPSRFSGSGSGTDFTLTISSLQPEDFATYYCQQSIGRGVVTFGQGTKLEIK
notes: L6 is the Ab417 VK with I31S, R37Q, R39K and K42Q; also called Ab417-H6L6 mutant; H6L6 mutant

Columns and labels:
[1] = target: T1, human L1CAM (purified extracellular domain) (human, UniProt P32004 20-1112); experiment: competitive ELISA
T1 construct: range 1-1112; Expressed in HEK293T from pJK-dhfr2-L1-monomer; The stated range 1-1112 begins at residue 1 of the precursor; no signal peptide limits are stated; also called human L1CAM antigen
Experimental: (§1) The affinities of the purified antibodies for human L1CAM were measured by competitive ELISA. Human L1CAM was prepared at a density of 1×10⁻⁶ M and serially diluted to 1×10⁻¹¹ M using a PBS buffer solution. Respective antibodies were prepared by diluting them in PBS buffer solution at particular concentrations according to their binding capacity. The antigens and antibodies thus diluted were reacted with each other at the same volume ratio, and allowed to react at room temperature for 2 hours.
(§2) 96-well plates (MaxiSorp, Nunc) were coated using the purified human L1CAM which were diluted in a buffer solution (15 mM Na₂CO₃, 34.84 mM NaHCO₃, pH 9.6) at a concentration of 100 ng/well, at 4° C. overnight. Next day, the wells were washed with 0.05% PBS-T buffer solution twice. Difco skim milk (BD) was dissolved in 0.05% PBS-T buffer solution at a concentration of 2%, and 200 μl thereof was added to each well, followed by incubation at room temperature for 1 hour. Then, the wells were washed with 0.05% PBS-T buffer solution twice. To the plate, 100 it of the antigen/antibody reactant that were reacted for 2 hours was added and allowed to react at room temperature for 1 hour. Then, the wells were washed with 0.05% PBS-T buffer solution three times to remove non-antigen bound antibodies. Goat anti-human IgG(Fc)-HRP (Pierce, 1/5000) that specifically recognizes the Fc region of human antibody was added as a secondary antibody, and allowed to react at room temperature for 1 hour. Then, the wells were washed with 0.05% PBS-T buffer solution four times to remove the remaining secondary antibodies. […] Then, 50 μl of 2.5 M H₂SO₄ solution was added to each well to terminate the enzymatic reaction. After terminating the reaction, absorbance was measured at 450 nm (VERSAmax microplate reader, Molecular Devices).
Affinity of the purified Ab417 antibody for human L1CAM was measured by competitive ELISA in the same manner as in Example 3-2.

[2] = target: T2, mouse L1CAM (purified extracellular domain with S1 tag) (mouse, UniProt P11627 20-1123); experiment: competitive ELISA with mouse L1CAM
T2 construct: extracellular domain; also called mouse L1CAM monomer; not shown: S1 tag from the pJEX2T vector

[3] = target: T1, human L1CAM (purified extracellular …); experiment: competitive ELISA (soluble human L1CAM against coated human L1CAM)
Experimental: as §1, §2

[4] = target: T1, human L1CAM (purified extracellular …); experiment: Octet RED (called SPR in the filing), antibody on AHC sensor, soluble human L1CAM
Experimental: (§3) In addition to the competitive ELISA, SPR (surface […] resonance) was measured using Octet RED (ForteBio, USA) according to the manufacturer's protocol to determine the affinities of Ab417 antibody and Ab4M antibody for human and mouse L1CAM. […] AHC (anti-human IgG Fc capture) sensor chip was used to analyze binding kinetics of the antibodies to antigens by examining changes in refractive index which occurs upon association and dissociation of antibody and antigen while transferring the sensor chip to PBS solution, antibody, PBS solution, antigen, and PBS solution in this order.

[5] = target: T2, mouse L1CAM (purified extracellular …); experiment: Octet RED (called SPR in the filing), antibody on AHC sensor, soluble mouse L1CAM
Experimental: as §3

[6] = target: T1, human L1CAM (purified extracellular …); experiment: Octet RED
Experimental: as §3

[7] = target: T1, human L1CAM (purified extracellular …); experiment: Octet RED, antibody on AHC sensor, soluble human L1CAM
Experimental: (§4) Affinities of Ab417, Ab417-H6L2 mutant, and Ab417-H6L6 mutant for human and mouse L1CAM were examined using Octet RED (fortebio). […] Each 200 it thereof was added to opaque 96-well plate to prevent light transmission. AHC (anti-human IgG Fc capture) sensor chip was used to analyze binding kinetics of the antibodies to antigens by examining changes in refractive index which occurs upon association and dissociation of antibody and antigen while transferring the sensor chip to PBS solution, antibody, PBS solution, antigen, and PBS solution in this order.
(§5) Despite amino acid substitution, there were no changes in the affinities of these antibodies (Table 4), and there were also no changes in the affinities of these antibodies for mouse L1CAM (Table 5).

[8] = target: T2, mouse L1CAM (purified extracellular …); experiment: Octet RED, antibody on AHC sensor, soluble mouse L1CAM
Experimental: as §4, §5

[9] = target: T2, mouse L1CAM (purified extracellular …); experiment: not stated there (summary of the filing's affinity measurements)
[10] = target: T1, human L1CAM (purified extracellular …); experiment: not stated there (summary of the filing's affinity measurements); rounded summary value, no assay named
[11] = target: T2, mouse L1CAM (purified extracellular …); experiment: indirect ELISA on coated mouse L1CAM, mutant IgG in culture supernatant, relative to Ab4
Description: The expression vectors of respective mutants were obtained in a large amount, and transfected to human embryonic kidney HEK293T cells using Lipofectamine 2000 (invitrogen), followed by culture. The transfected cells produce and secrete whole antibodies out of the cells, and the culture supernatants were collected and subjected to indirect ELISA as follows. 96-well plates (MaxiSorp, Nunc) were coated using the purified extracellular domain of human L1CAM (hereinafter, referred to as ‘human L1CAM’) and the extracellular domain of purified mouse L1CAM (hereinafter, referred to as ‘mouse L1CAM’) as antigens, which were diluted in a buffer solution (15 mM Na₂CO₃, 34.84 mM NaHCO₃, pH 9.6) at a concentration of 100 ng/well, at 4° C. overnight. Next day, the plate was washed with 0.05% PBS-T buffer solution twice. Difco skim milk (BD) was dissolved in 0.05% PBS-T buffer solution at a concentration of 2%, and 200 μl thereof was added to each well, followed by incubation at 37° C. for 1 hour. Then, the wells were washed with 0.05% PBS-T buffer solution twice. To the plate, 100 μl of the supernatant was added and allowed to react at 37° C. for 1 hour. Then, the wells were washed with 0.05% PBS-T buffer solution three times to remove non-antigen bound antibodies. Goat anti-human IgG(Fc)-HRP (Pierce, 1/5000) that specifically recognizes the Fc region of human antibody was added as a secondary antibody, and allowed to react at 37° C. for 1 hour. Then, the wells were washed with 0.05% PBS-T buffer solution four times to remove the remaining secondary antibodies.
Then, 50 μl of 2.5 M H₂SO₄ solution was added to each well to terminate the enzymatic reaction. After terminating the reaction, absorbance was measured at 450 nm (VERSAmax microplate reader, Molecular Devices).

T2 sequence (P11627 20-1123): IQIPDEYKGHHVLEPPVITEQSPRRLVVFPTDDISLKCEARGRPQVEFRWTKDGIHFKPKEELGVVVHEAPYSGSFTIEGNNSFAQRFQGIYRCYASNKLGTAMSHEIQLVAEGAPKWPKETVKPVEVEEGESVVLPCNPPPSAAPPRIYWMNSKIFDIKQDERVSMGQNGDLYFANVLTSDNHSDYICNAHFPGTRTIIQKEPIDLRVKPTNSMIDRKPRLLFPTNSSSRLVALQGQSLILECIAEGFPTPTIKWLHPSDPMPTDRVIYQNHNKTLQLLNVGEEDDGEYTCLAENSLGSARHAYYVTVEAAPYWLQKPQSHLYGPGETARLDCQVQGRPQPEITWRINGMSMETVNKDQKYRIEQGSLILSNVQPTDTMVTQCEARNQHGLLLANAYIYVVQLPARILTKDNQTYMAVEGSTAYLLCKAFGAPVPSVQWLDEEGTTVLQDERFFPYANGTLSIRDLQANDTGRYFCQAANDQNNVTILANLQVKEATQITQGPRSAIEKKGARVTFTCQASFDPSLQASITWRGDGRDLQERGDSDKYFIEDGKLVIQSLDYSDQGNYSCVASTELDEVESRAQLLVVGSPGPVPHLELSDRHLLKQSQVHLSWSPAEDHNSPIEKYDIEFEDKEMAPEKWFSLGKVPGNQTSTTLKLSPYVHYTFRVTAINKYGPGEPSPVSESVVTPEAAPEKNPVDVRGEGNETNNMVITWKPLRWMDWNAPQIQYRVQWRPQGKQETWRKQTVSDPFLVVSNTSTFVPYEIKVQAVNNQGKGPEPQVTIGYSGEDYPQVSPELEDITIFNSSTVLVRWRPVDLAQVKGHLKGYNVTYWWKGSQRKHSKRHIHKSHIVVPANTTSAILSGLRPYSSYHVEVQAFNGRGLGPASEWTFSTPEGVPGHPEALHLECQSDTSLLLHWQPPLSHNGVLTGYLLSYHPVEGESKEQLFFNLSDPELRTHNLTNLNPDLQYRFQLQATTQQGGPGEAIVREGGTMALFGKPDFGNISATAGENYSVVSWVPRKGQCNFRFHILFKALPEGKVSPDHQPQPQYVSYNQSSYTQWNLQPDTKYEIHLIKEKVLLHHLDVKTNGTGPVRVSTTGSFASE
T1 sequence (P32004 20-1112 limits assumed, form in doubt): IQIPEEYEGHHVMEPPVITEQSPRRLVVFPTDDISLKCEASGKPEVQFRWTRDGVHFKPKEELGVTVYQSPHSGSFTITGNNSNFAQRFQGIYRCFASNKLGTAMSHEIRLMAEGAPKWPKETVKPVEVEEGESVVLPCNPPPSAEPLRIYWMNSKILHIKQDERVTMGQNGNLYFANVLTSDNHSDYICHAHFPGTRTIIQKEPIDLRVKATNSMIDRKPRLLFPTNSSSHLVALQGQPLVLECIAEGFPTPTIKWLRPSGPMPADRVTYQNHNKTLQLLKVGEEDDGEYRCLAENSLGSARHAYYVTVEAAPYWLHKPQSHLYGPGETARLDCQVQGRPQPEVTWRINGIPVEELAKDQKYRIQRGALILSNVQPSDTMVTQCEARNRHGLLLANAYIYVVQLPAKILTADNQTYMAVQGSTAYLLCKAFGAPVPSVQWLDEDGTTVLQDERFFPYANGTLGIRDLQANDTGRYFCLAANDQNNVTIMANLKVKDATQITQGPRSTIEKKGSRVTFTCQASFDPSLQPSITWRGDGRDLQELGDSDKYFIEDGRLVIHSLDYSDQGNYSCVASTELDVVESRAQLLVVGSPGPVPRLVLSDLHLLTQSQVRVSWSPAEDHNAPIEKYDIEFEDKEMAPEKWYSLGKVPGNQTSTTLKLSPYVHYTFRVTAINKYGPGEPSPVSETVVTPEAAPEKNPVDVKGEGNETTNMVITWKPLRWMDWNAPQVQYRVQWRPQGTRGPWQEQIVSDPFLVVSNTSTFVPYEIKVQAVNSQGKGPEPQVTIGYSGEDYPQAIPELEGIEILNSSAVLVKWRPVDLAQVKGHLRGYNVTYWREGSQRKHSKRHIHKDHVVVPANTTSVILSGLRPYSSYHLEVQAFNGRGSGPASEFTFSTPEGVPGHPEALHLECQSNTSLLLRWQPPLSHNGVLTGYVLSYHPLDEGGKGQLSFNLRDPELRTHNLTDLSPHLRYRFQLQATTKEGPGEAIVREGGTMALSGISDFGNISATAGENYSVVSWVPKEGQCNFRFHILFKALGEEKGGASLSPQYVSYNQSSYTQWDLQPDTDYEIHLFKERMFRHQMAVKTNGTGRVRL

Row | Binder | Kd [3] | Kd [7] | koff [7] | kon [7] | Kd [8] | koff [8] | kon [8] | binding result [11] | other results
1 | B1 | 2900 pM |  |  |  |  |  |  |  | fold higher affinity than Ab4 [1]: ~45 fold; Kd [2]: 220 pM; fold higher affinity than Ab4 [2]: ~8 fold; Kd [4]: 330 pM; koff [4]: 4.3e-05 s⁻¹; kon [4]: 130000 M⁻¹ s⁻¹; Kd [5]: 89.3 pM; koff [5]: 2.22e-05 s⁻¹; kon [5]: 249000 M⁻¹ s⁻¹
2 | B2 | 1200 pM | 239 pM | 4.51e-05 s⁻¹ | 189000 M⁻¹ s⁻¹ | 108 pM | 2.64e-05 s⁻¹ | 244000 M⁻¹ s⁻¹ |  | fold higher affinity than Ab4 [1]: ~92 fold; fold higher affinity than Ab4M [1]: ~2.4 fold; Kd [2]: 210 pM; fold higher affinity than Ab4 [2]: ~8 fold; fold higher affinity than Ab4M [6]: ~2 fold; Kd [9]: 100 pM; Kd [4]: 180 pM; koff [4]: 2.33e-05 s⁻¹; kon [4]: 127000 M⁻¹ s⁻¹; Kd [5]: 34.8 pM; koff [5]: 8.1e-06 s⁻¹; kon [5]: 233000 M⁻¹ s⁻¹; Kd [10]: 200 pM
3 | B3 | 30000 pM |  |  |  |  |  |  |  | 
4 | B4 |  |  |  |  |  |  |  | no binding | 
5 | B5 | 29000 pM |  |  |  |  |  |  |  | 
6 | B6 |  |  |  |  |  |  |  | no binding | 
7 | B7 | 18000 pM |  |  |  |  |  |  |  | 
8 | B8 |  |  |  |  |  |  |  | no binding | 
9 | B9 |  | 220 pM | 3.22e-05 s⁻¹ | 146000 M⁻¹ s⁻¹ | 131 pM | 2.67e-05 s⁻¹ | 204000 M⁻¹ s⁻¹ |  | 
10 | B10 |  | 246 pM | 3.64e-05 s⁻¹ | 148000 M⁻¹ s⁻¹ | 98.4 pM | 2.11e-05 s⁻¹ | 214000 M⁻¹ s⁻¹ |  | 

Reference: patent US20150344571A1 (KANGWON NATIONAL UNIVERSITY UNIVERSITY INDUSTRY COOPERATION …, published 2015)
